Laboratory results taken from the DeepSol protein solubility set.

Test: soluble on expression in E. coli; label from the status in PepcDB or PDB records

Row | Sequence | soluble on expression in E. coli
1 | MGKEVMGKKENEMAQEKERPAGSQSLFRGLMLIEILSNYPNGCPLAHLSELAGLNKSTVHRLLQGLQSCGYVTTAPAAGSYRLTTKFIAVGQKALSSLNIIHIAAPHLEALNIATGETINFSSREDDHAILIYKLEPTTGMLRTRAYIGQHMPLYCSAMGKIYMAFGHPDYVKSYWESHQHEIQPLTRNTITELPAMFDELAHIRESGAAMDREENELGVSCIAVPVFDIHGRVPYAVSISLSTSRLKQVGEKNLLKPLRETAQAISNELGFTVRDDLGAIT | soluble
2 | MGKIFCIVQARMGSERLQGKVIKPILKKPMVIYTLDRLKKSKYIDKIVLATSSMERETPLVESCEEYGYDVFKGSEANVLKRYEQAAEKYGANIEDAVIRVTGDCPLIDPIIVDNVVTKFLSSDYDYVRLDVPNTFVRGFDVEIFSMKALKTVNSLINGGKIPKEEADMYKEHVTLYMYKHPNEFKVGYVKGDEFYSKDYRLCVDTKEDFELVKNIYEHFNDEFVSSKNVINYLDRNSEIAQINNDIKQKEVLEHHHHHH | soluble
3 | MGKKIITISREYGSGGRQVGLTVAKKLGMEFYDKELIDAAAKEIGFPTEMIADREQRLTNSLLYNFAMGTLYGIAYPREPKVSELPLTEQIYQAQKKAIEEAAKRGSCIFVGRCADYILKSRPDVLRVFIYADRDIRKRRAIEEYGEIEEYIDEFMYQTDKRRRIHYENYTNQKWGSRENYDLMLNSGDLGLDKCVELLCEAVK | not soluble
4 | MGKRMVVVGGVAGGASAAAKAKRENPELEVVVYEKSGWVSYGACGLPYVLSGEIPRLERLVARTPEEFRKQGVLVRTRHEVVDVDYELRTLTVHDHAEGRTFQDRFDHLVLATGARPSLPPIPGTEQEGVYTLRTMEDGERLLKALPQARRAAILGAGYIGLEAAEAFRKRGLQVTLLEAKDRPLPHWDPEVGALLKEELERHGVEVWTGVKVEAFRGMGRVEAVETSEGVVPADLVLLATGIRPNTELAQAMGVALGPTGAIATDERMRTNLEGVYAAGDVAESFHRVLKRPYWLPLGDVANKHGRTAGSVIAGREARFLGVVGTAIFKAFDLAVATTGLSLEGALKEGFWAKKVFIQSRDGAHYYPGSGPLWVELVYEEGTGRLLGGAVVARGHGALRIDVLAALLHREGSVEDLLALDLAYAPPFSPVWDPLLIAAQQAR | soluble
5 | MGKTLYEKVYDAHVAVAAEGETPILYIDRHLVHEVTSPQAFDGLREKGRKVRQVSKTFATMDHNVSTTTKDINASGEMARIQMETLSKNCEEFGVTLYDLNHKYQGIVHVMGPELGITLPGMTIVCGDSHTATHGAFGSLAFGIGTSEVEHVLATQTLKQARAKT | not soluble
6 | MGKWRYLAIGVCLMTTSGVTFADSLDAQRQRYQQVKLAWDSNQMDTVAQLMPTLRDYPLYPYLEYRQLTQDLSQVSTAQVKDFLNRHPTLPPAKSLPSRFVNELARREDWRGLLTFSPTAPKPVAARCNYYYAKWATGEQSVAWEGASEIWLNGQSLPGSCDKLFSVWQQAGHQTPLATLARMKLALKEGNASLVSYLLKQLPADYQTMGTALAKLQSDPSSVESFARTVGPTDFTRSATTIAFTRLARQDVENARLMIPSLVRLQKMSDSEKLELEEAVAWRLMGNDATYEQAKWRDQVALRSHSTSLLERRIRMSLGSGDRQGLATWLARLPAEAQDKDEWRYWRASLLLEQGKKAEGEAILRSLTKERGFYPMVAAQKLNIPYPIKVQVAAKPDVSLAQRPEIARVRELMYWNMDNQARAEWSYLVASRSKAEQEALARYAFDQKWADLSVQATIVAKLWDHLEERFPMAWTKEFRQFTEDKGITPSYAMAIARQESAWNPKAQSPVGATGLMQVMPRTAEHTVKRNNIAGYLNSSQLLDPVTNIEIGTYYLEEVYQQFGRNRILSSAAYNAGPSRVNTWLGNSGGQVDAVAFIESIPFSETRGYVKNVLAYDAFYRHFMNRPAKVLSDAEWQRRY | soluble
7 | MGLIEDKALVEAALFVAGRPLSLKELSKALGIKSLDYLEKLIELIASEYAERKSAIEIVKVAGDKWVMQVKQEYSQRVIPLMPKPELSTGELKTLALIAYLQPVEQSKIVKLRGSQAYEHIRKLLEMGLIYAEPYERTRLLGTTEKFAELYGFPENDPMLIKETFKKVIHAEYSDLMKKIEESEKKKE | soluble
8 | MGLKDWIEAPAAAVVPAKRSKLNWLRGAAARLTTPLLPDDYLHLANPLWSARELRGQIVEVRAETADSATIVIKPGWGFDFDYEPGQYIGIGLHIDGRWHWRSYSLTSPPNWDDKLISIAVKAMPEGFLSSHLVNGVPSGTIVRLATPTGNFALPDPPPERILFLTAGSGITPVMAMLRTMNRRGQLPDVFHVHSAPTDADVMFADELTQLHEEHDDFRCKIQLTRSQGKFALSSLDEVCPDWRERQTWACGPLPMLDEIETLWRDEGIENKLHLERFAVSRADTSGEGGTVTFAKADKTVSVDGATTLLEAGEQVGALMPFGCRMGICQTCVVPILAGHAIDLRSGKQHAEGDRVQTCISAAAGDCTLDA | not soluble
9 | MGLSPSAPAVAVQASNASASPPSGCPMHEGKMKGCPVNTEPSGPTCEKKTYSVPAHQERAYEYVECPIRGTAAENKENLDPSNLMPPPNQTPAPDQPFALSTVREESSIPRADSEKKWVYPSEQMFWNAMLKKGWKWKDEDISQKDMYNIIRIHNQNNEQAWKEILKWEALHAAECPCGPSLIRFGGKAKEYSPRARIRSWMGYELPFDRHDWIINRCGTEVRYVIDYYDGGEVNKDYQFTILDVRPALDSLSAVWDRMKVAWWRWTS | soluble
10 | MGLVGLHSGTIDMEFIGVEDHGDEEGKQIAVSVISSGKNADKTEDPDSLIFTGFGGTDMYHGQPCNQKLERLNIPLEAAFRKKSIVRVVRCMKDEKRTNGNIYIYDGTYMITNRWEEEGQNGFIVFKFKLVREPDQKPAFGIWKSIQNWRNGLSIRPGLILEDLSNGAENLKVCLVNEVDKENGPALFRYVTSLIHEVINNIPSMVDRCACGRRSCGSKHVFREKLSVSSSLVISAKKSGNVARFMNHSCSPNVFWQSIAREQNGLWCLYIGFFAMKHIPPLTELRYDYGKSRGGGKKMCLCRTKKCCGSFG | soluble
11 | MGLVTDEVRARAEKYTGDEICREKTKEFLKEVSMPNGLLPLKDIEEVGYDRETGIVWLKQKKSITHKFEAIGKLVSYATEVIAQVEVGKIKKLTGVKAKELLIWVTLNELVLEQPTSSGKINFRTPTGLSRTFPVSAFVVPEVEKPATEKNNGTTEVKEAVAVTDA | not soluble
12 | MGMELILREWMGKEKDYSISYSTYMNLVLYTEGHGYYMKEREKIGRQGDFFTSSNVSSVFAKTFAKLFIRLVENGEVASNICEVGGGTGKFAYDVLQEWKQLSPNTFINLNYSMIEVSPFHRKLQQEQLGSFSNVSYYTSYSEMGDSFEGILFSNELFDAFPVEVIEKRNGILYEVRITYTEEGNLSEVCRPLNKRIGRYLLKYNIHIAEGQRFEVPIVMEEYIKEISKWFQKGICITVDYGYTKEEWMHPAHREGSLRGYYQHKLMRNPLAHPGEMDLTTHVHWDELKEMFSMQGMSAVWHKKQSEFLLAAGILEQLTSHQDTNPFSETQKQNRAVRSMILNGGVGSSFDVVIHTKDMQHLHLDQYVTILEHHHHHH | soluble
13 | MGNARGFLDFKRMDFKKIAPKERILNYKEFTIPLDKKEQEVQGGRCMDCGVAFCHTGVMSEGKDVGCPLNNLIPEWNDLVYRSLWKEAYERLDLTNPFPEFTGRVCPAPCEDSCVCAINGVSVSIKNNELSIIENAFKENLVRVNKPKQYNGKKIAVIGSGPAGLACANTLNSLGYKVSVFERSDKIGGLLMYGIPDMKLDKSIVQRRVDLLKKSGIEFKVNENIDSKDKVSKLLKEFDALVLCTGASKPIDLDIEGRKLKGVEFALDFLTQNTKTLLKTGKGADMAKGKNVLVIGSGDTSVDCIAVATRQGAKSIVRFERSPKRPLQRSQNNPWPLKADIFTTDYGLEEAIAVYGKDPREYQKMTKKFLGKTHVEGVEANDLKREFKEGKAINVEISNSKKTYKADLVLLAMGFSGCEEAISKNFGVKLDEKNNISTENFQTTHKKIFACGDARKGQSLVVWAIKDGIECALSLHQNLAKLEHHHHHH | not soluble
14 | MGNKITVEVTVYAAIEKVWKYWNEPAHIMKWCQASPEWHVPAAQNDLKAGGTFTTTMAAKDGSMSFDFGGVYDQVKTNDLIEYTIGDGRKVRIVFTHTGDTTNIVESFDPEETNPRELQQSGWQAILNSFKSYTENNLEHHHHHH | soluble
15 | MGNVMEGKSVEELSSTECHQWYKKFMTECPSGQLTLYEFRQFFGLKNLSPSASQYVEQMFETFDFNKDGYIDFMEYVAALSLVLKGKVEQKLRWYFKLYDVDGNGCIDRDELLTIIQAIRAINPCSDTTMTAEEFTDTVFSKIDVNGDGELSLEEFIEGVQKDQMLLDTLTRSLDLTRIVRRLQNGEQDEEGADEAAEAAG | not soluble
16 | MGPIKTIKKKKRAEKKVDRNVLLAATAAATSASAAAALNNNDDDDDSSSQSLDWWDGFSRRIYGGSTDPKTFESVFKISRKTFDYICSLVKADFTAKPANFSDSNGNPLSLNDRVAVALRRLGSGESLSVIGETFGMNQSTVSQITWRFVESMEERAIHHLSWPSKLDEIKSKFEKISGLPNCCGAIDITHIVMNLPAVEPSNKVWLDGEKNFSMTLQAVVDPDMRFLDVIAGWPGSLNDDVVLKNSGFYKLVEKGKRLNGEKLPLSERTELREYIVGDSGFPLLPWLLTPYQGKPTSLPQTEFNKRHSEATKAAQMALSKLKDRWRIINGVMWMPDRNRLPRIIFVCCLLHNIIIDMEDQTLDDQPLSQQHDMNYRQRSCKLADEASSVLRDELSDQLCGKNSSA | soluble
17 | MGPSRWPRGGGRLLGRLYLVVTPRPGWSLEATLDRTERALAGGVEVVQLRAKDWEARPTLALGERMLALARRYGVPFFLNDRPDLAALLGADGVHLGQNDLTPEEARRFFAGMVGRSTHAPEQALRALEEGVDYLSVGPVWETPTKPGRPAAGLAYVRWAAENLGEKPWYAIGGIDLGNLDQVLEAGARRIVVVRAILDAPDPERAARALRERLYGVA | soluble
18 | MGQGNDTSEVMLLDTGWEFSQSGTEKWMPATVPGTVHQDLISHELLPNPFYGMNEKKIQWVENEDWEYRTSFIVSEEQLNRDGIQLIFEGLDTYADVYLNGSLLLKADNMFVGYTLPVKSVLRKGENHLYIYFHSPIRQTLPQYASNGFNYPADNDHHEKHLSVFSRKAPYSYGWDWGIRMVTSGVWRPVTLRFYDIATISDYYVRQLSLTDENARLSNELIVNQIVPQKIPAEVRVNVSLNGTTVTEVKQQVTLQPGINHITLPAEVTNPVRWMPNGWGTPTLYDFSAQIACGDRIVAEQSHRIGLRTIRVVNEKDKDGESFYFEVNGIPMFAKGANYIPQDALLPNVTTERYQTLFRDMKEANMNMVRIWGGGTYENNLFYDLADENGILVWQDFMFACTPYPSDPTFLKRVEAEAVYNIRRLRNHASLAMWCGNNEILEALKYWGFEKKFTPEVYQGLMHGYDKLFRELLPSTVKEFDSDRFYVHSSPYLANWGRPESWGTGDSHNWGVWYGKKPFESLDTDLPRFMSEFGFQSFPEMKTIAAFAAPEDYQIESEVMNAHQKSSIGNSLIRTYMERDYIIPESFEDFVYVGLVLQGQGMRHGLEAHRRNRPYCMGTLYWQLNDSWPVVSWSSIDYYGNWKALHYQAKRAFAPVLINPIQQNDSLSVYLISDRLDTMEQMTLEMKVVDFDGKTLGKKIQVHSLEVPANTSKCVYRAKLDGWLTPEDCRRSFLKLILKDKSGHQVAESVHFFRKTKDLQLPPTSVSYQMKQTDGKCELTLFSSMLAKDIFIETPLQGARYSDNFFDLLPGERKKVIITSPRIKKGEELPVNIKHIRETYKEHHHHHH | soluble
19 | MGQPIITRDAGRYFLTDRIRHEVDWWNTPQARGEEPPPVQKPVAPGAMVIPLPPPATWGIPPCSLADGIARRESRRRFRAVPLTPEELAFLLWATQGVRARLNEAAVLRTVPSAGCRHPFETYLAILSVTGIEPAVYRYLPLDHALVLEREVPDLAATVTAAAHGQRFAGEAAVTFVWTAIPARTEWRYAEASYKVIALDAGHVCQNLYLACEAIGAGTCAIAAYRQALADELLGVDGREEFTVYLAPVGKV | not soluble
